# Measured values as given in publication PMC5796892.
# Tests used:
# [1] = target: serum-derived MBL-associated serine proteases (MASPs) (human (endogenous in normal human serum)); test: ELISA; normal human serum diluted 1:10 in veronal buffer saline bound to mannan-coated plate (37°C, 2 h), washed; rLdISP1/rLdISP2 0-50 µM added, 37°C, 2 h; bound ISP detected with anti-ISP1 or anti-ISP2 antibody
# [2] = target: C1 complex (C1qr2s2) (human) (UniProt P02745); test: ELISA; C1 complex at 50 µg/ml bound to human IgM-coated plate (37°C, 2 h); rLdISP1/rLdISP2 0-50 µM added, 37°C, 2 h; bound ISP detected with anti-ISP1 or anti-ISP2 antibody; Kd taken as the free ligand at half saturation
# [3] = target: C1 complex (C1qr2s2) (human) (UniProt P02745); test: ELISA; C1 complex at 25 µg/ml bound to human IgM-coated plate (37°C, 2 h); rLdISP1/rLdISP2 0-50 µM added, 37°C, 2 h; bound ISP detected with anti-ISP1 or anti-ISP2 antibody; Kd taken as the free ligand at half saturation
# [4] = target: MBL-associated serine protease 2 (MASP2), serum-derived (human (endogenous in normal human serum))
# [5] = target: neutrophil elastase (NE) from human leukocytes (human) (UniProt P08246)
# [6] = target: C1 complex (C1qr2s2) (human) (UniProt P02745); test: ELISA; C1 complex at 100 µg/ml bound to human IgM-coated plate (37°C, 2 h); rLdISP1/rLdISP2 0-50 µM added, 37°C, 2 h; bound ISP detected with anti-ISP1 or anti-ISP2 antibody; Kd taken as the free ligand at half saturation
# [7] = target: MBL-associated serine protease 2 (MASP2), serum-derived (human (endogenous in normal human serum)); remark: listed apart in the source
# [8] = target: serum-derived MBL-associated serine proteases (MASPs) (human (endogenous in normal human serum)); test: ELISA; normal human serum diluted 1:50 in veronal buffer saline bound to mannan-coated plate (37°C, 2 h), washed; rLdISP1/rLdISP2 0-50 µM added, 37°C, 2 h; bound ISP detected with anti-ISP1 or anti-ISP2 antibody
# [9] = target: C1 complex (C1qr2s2) (human) (UniProt P02745); test: ELISA; C1 complex at 12.5 µg/ml bound to human IgM-coated plate (37°C, 2 h); rLdISP1/rLdISP2 0-50 µM added, 37°C, 2 h; bound ISP detected with anti-ISP1 or anti-ISP2 antibody; Kd taken as the free ligand at half saturation
# [10] = target: MBL-associated serine protease 2 (MASP2), serum-derived (human (endogenous in normal human serum)); remark: listed apart in the source
# [11] = target: C1 complex (C1qr2s2) (human) (UniProt P02745); test: ELISA; C1 complex at 100 µg/ml bound to human IgM-coated plate (37°C, 2 h); rLdISP1/rLdISP2 0-50 µM added, 37°C, 2 h; bound ISP detected with anti-ISP1 or anti-ISP2 antibody; Kd taken as the free ligand at half saturation; remark: listed apart in the source
# [12] = target: MBL-associated serine protease 2 (MASP2), serum-derived (human (endogenous in normal human serum)); remark: listed apart in the source
# [13] = target: serum-derived MBL-associated serine proteases (MASPs) (human (endogenous in normal human serum)); test: ELISA; normal human serum diluted 1:100 in veronal buffer saline bound to mannan-coated plate (37°C, 2 h), washed; rLdISP1/rLdISP2 0-50 µM added, 37°C, 2 h; bound ISP detected with anti-ISP1 or anti-ISP2 antibody
# [14] = target: C1 complex (C1qr2s2) (human) (UniProt P02745); test: ELISA; C1 complex at 6.25 µg/ml bound to human IgM-coated plate (37°C, 2 h); rLdISP1/rLdISP2 0-50 µM added, 37°C, 2 h; bound ISP detected with anti-ISP1 or anti-ISP2 antibody; Kd taken as the free ligand at half saturation
# neutrophil elastase (NE) from human leukocytes (human), sequence (P08246 30-267): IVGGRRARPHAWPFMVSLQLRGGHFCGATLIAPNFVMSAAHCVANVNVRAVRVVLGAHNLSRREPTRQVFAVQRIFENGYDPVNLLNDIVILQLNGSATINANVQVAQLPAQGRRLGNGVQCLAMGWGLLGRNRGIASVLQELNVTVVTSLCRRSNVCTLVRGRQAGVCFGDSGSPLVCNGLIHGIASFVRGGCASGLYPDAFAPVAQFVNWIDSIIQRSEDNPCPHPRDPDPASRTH
substance,measurement,setting,value
recombinant L. donovani inhibitor of serine peptidases 2 (natural protein),Ka,[1],830000 M⁻¹
same,Kd,[1],1200 nM
same,Ka,[2],500000 M⁻¹
same,Kd,[2],2000 nM
same,Ka,[3],350000 M⁻¹
same,Kd,[3],3000 nM
same,"C4b formation (C4 cleavage by serum-derived MASPs on mannan plate, sandwich ELISA), fold decrease against control at 10 and 50 µM rLdISP2 (~2.1, ~2.9-fold)",[4],2.9 fold
same,"C5aR expression (western blot) in macrophages treated with NE pre-incubated with 10 µM rLdISP2, fold increase against control",[5],2.5 fold
same,"enzyme activity of NE (50 nM; substrate N-methoxysuccinyl-Ala-Ala-Pro-Val-AMC), reduction at 0.1, 1 and 10 µM rLdISP2 (~49, ~60, ~82%)",[5],82%
same,Kd,[6],1600 nM
same,"MAC (C5b-9) formation on promastigotes via the lectin pathway, fold decrease against active LPSS at 10 and 50 µM rLdISP2 (~1.5, ~2.3-fold)",[7],2.3 fold
same,"complement-mediated lysis of promastigotes via the lectin pathway, fold reduction at 10 and 50 µM rLdISP2 (~1.8, ~2.5-fold)",[7],2.5 fold
same,Ka,[8],520000 M⁻¹
same,Kd,[8],1900 nM
same,Ka,[9],310000 M⁻¹
same,Kd,[9],3.2 µM
same,"enzyme activity of serum-derived MASP2 (substrate Z-L-Lys-SBzl with DTNB), reduction against untreated serum at 5, 10 and 50 µM rLdISP2 (~30, ~44, ~60%)",[10],60%
same,Ka,[11],760000 M⁻¹
same,Kd,[11],1300 nM
same,"C3 convertase (C3c) formation by all complement pathways in human serum with promastigotes, fold reduction at 10 and 50 µM rLdISP2 (~1.5, ~2.5-fold)",[12],2.5 fold
same,"C3 convertase (C3c) formation by the lectin pathway (lectin pathway-specific serum), fold reduction at 10 and 50 µM rLdISP2 (~2, ~4-fold)",[12],4 fold
same,"C5 convertase (C5c) formation by all three pathways, fold reduction at 10 and 50 µM rLdISP2 (~1.5, ~2.9-fold)",[12],2.9 fold
same,"C5 convertase (C5c) formation by the lectin pathway, fold reduction at 10 and 50 µM rLdISP2 (~1.4, ~3.2-fold)",[12],3.2 fold
same,Ka,[13],330000 M⁻¹
same,Kd,[13],3 µM
same,Ka,[14],280000 M⁻¹
same,Kd,[14],3.5 µM
recombinant Leishmania donovani inhibitor of serine peptidases 1 (natural protein),Ka,[1],710000 M⁻¹
same,Kd,[1],1400 nM
same,"enzyme activity of NE (50 nM; substrate N-methoxysuccinyl-Ala-Ala-Pro-Val-AMC), inhibition at 10 µM rLdISP1",[5],27%
same,Ka,[8],450000 M⁻¹
same,Kd,[8],2200 nM
same,Ka,[13],310000 M⁻¹
same,Kd,[13],3.2 µM
